This test addresses T1, recombinant hemagglutinin (HA) of 2009 pandemic virus A/Korea/01/2009 (KR01) (Influenza A virus A/Korea/01/2009 (H1N1), strain).
T1 construct: also called KR01 HA; H1N1 HA
Kind of test: crystal structure. The note with it: both partners purified.

B1: Fab fragment from H1-specific monoclonal antibody GC0587 (Fab, V domains shown)
VH: VKLQQSGGGVVQPGGSLRLSCAASGFTFSDYDMSWIRQAPGKGLEWVSGILGGSERSYYRDSVKGRFTISRDNSRKTLYLQMNSLRAEDTAVYYCARHGSPGYTLYAWDYWGQGTMVTVSS
VL: DIQMTQSPASLAVSPGQRATITCRASESVSNYGINFINWFQQKPGQPPKLLIYTASNKGTGVPARFSGSGSGTDFTLTINPVEAEDTANYFCQQTKEVPYTFGGGTKLEIK
notes: also called Fab0587
B1: the binding result is given as “binds”.

For the origin of these results see paper PMC3935945, “Insight into Highly Conserved H1 Subtype-Specific Epitopes in Influenza Virus Hemagglutinin” (PLoS ONE, 2014).
